# In paper PMC7596997, “The selectivity filter of the mitochondrial protein import machinery” (BMC Biology, 2020):
# No end group written: not given here.
# T1: cytosolic domain of yeast Tom70 (His-Tom70_(38–617)) (yeast (Saccharomyces cerevisiae), UniProt P07213 38-617)
# T1 construct: Tom70, yeast, cytosolic domain, residues 38-617 of the protein of 617 amino acids; plasmid pET10N-Tom70(38–617); also called Tom70cd; isolated Tom70; source: E. coli BL21(DE3), purified (HisTrap, size exclusion; or Ni-NTA beads, batch method); not shown: His tag, N-terminal, kept
# T1 sequence (looked up): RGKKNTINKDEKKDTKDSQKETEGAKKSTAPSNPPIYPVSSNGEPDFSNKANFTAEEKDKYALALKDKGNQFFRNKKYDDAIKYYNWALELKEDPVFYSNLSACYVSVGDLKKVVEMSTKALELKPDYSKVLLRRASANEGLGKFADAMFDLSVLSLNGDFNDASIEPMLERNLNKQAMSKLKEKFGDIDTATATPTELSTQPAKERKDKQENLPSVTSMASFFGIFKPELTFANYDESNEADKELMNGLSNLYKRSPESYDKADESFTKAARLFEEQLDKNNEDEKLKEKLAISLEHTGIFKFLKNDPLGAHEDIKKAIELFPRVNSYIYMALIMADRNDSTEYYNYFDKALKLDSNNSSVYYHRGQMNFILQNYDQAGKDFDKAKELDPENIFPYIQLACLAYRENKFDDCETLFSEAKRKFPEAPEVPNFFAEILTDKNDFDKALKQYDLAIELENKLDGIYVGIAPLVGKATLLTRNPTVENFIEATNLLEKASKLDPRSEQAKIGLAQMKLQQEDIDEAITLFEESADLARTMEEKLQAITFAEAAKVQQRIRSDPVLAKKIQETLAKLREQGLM
# Target: T1, cytosolic domain of yeast Tom70 …
# Test: pull-down; purified His-Tom70cd (50 pmol per 100 μl) pre-bound to Ni-NTA beads, incubated 40 min at 30 °C with typically 7% (v/v) reticulocyte lysate containing the [35S]-labelled protein; 10 mM MOPS/KOH, 20 mM imidazole, 150 mM KCl, 1% BSA, pH 7.2; eluted with 1 M imidazole, SDS-PAGE, phosphorimager; in some samples the bead-bound Tom70cd was pretreated with NEM and washed before the lysate was added
# Conditions: one partner purified
binder,measurement,value
"PLDTIRRRMMMTSGEAVKYKSSFDAASQIVAKEGVKSLFK (domain or fragment, Neurospora crassa, UniProt P02723 238-277, looked up, also: fused to DHFR, [35S]-methionine label, ADP/ATP carrier (AAC), Neurospora crassa, residues 238-277; plasmid pYES2-AAC(238–277)-DHFR; also called the construct containing only the matrix loop; AAC(238–277)-DHFR; source: in vitro translated (TNT coupled reticulocyte lysate, with [35S]-methionine), in lysate) [ML3-DHFR (matrix loop of AAC module III, residues 238–277, fused to DHFR)]",percent of the total radiolabelled protein bound,< 1%
